According to US20230416346:

Columns and labels:
[1] = biological target: recombinant human full-length SPARC (R&D Systems) (UniProt P09486)
[2] = biological target: human SPARC secreted by human mammary fibroblasts (HMFs) (UniProt P09486)
Sequence of human SPARC secreted by human mammary fibroblasts (HMFs) (P09486 18-303): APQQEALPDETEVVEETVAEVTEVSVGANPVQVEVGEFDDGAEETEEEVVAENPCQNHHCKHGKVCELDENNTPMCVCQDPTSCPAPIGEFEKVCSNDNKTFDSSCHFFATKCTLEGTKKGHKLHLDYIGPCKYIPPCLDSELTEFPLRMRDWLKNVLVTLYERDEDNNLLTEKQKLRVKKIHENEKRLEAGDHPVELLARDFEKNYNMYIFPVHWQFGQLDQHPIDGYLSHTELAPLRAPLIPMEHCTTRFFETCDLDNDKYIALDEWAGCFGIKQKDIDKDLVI

Sequence of fully-mature cath-D (34+14-kDa) (recombinant human cathepsin D) (chain, as listed by the source): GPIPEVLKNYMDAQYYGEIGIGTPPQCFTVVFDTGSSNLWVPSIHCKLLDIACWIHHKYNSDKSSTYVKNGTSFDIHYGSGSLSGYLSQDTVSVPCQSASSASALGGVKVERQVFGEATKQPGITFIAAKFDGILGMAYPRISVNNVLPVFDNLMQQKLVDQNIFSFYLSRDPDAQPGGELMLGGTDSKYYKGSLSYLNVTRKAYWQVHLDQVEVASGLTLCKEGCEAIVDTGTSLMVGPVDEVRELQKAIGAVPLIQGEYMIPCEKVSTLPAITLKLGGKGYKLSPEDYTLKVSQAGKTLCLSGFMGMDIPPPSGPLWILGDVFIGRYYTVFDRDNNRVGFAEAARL
Sequence of recombinant human full-length SPARC (R&D Systems) (P09486 18-303): as the sequence (P09486 18-303) above
Sequence of human cath-D secreted by TNBC cells (MDA-MB-231) (chain, as listed by the source): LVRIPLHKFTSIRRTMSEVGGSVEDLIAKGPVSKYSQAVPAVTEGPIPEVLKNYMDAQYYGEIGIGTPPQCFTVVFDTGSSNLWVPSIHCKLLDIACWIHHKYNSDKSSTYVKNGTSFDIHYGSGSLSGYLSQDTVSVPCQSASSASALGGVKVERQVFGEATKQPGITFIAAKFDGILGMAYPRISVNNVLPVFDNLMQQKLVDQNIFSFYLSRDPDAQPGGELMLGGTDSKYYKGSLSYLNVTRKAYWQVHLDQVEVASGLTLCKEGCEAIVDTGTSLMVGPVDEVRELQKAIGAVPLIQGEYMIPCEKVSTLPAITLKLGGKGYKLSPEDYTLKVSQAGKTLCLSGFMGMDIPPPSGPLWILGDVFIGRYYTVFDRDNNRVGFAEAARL

fully-mature cath-D (34+14-kDa) (recombinant human cathepsin D)
ATOMS ratio (Mature cath-D + SPARC - pepst./Mature cath-D + SPARC + pepst.), peptide DQHPIDGYLSHTELAPLR [239-256], trypsin [1]: 8.1
ATOMS ratio (Mature cath-D + SPARC - pepst./Mature cath-D + SPARC + pepst.), peptide DWLKNVLVTLYER [169-181], trypsin [1]: 0.5
ATOMS ratio (Mature cath-D + SPARC - pepst./Mature cath-D + SPARC + pepst.), peptide EAGDHPVELLAR [207-218], trypsin [1]: 19.3
ATOMS ratio (Mature cath-D + SPARC - pepst./Mature cath-D + SPARC + pepst.), peptide FGQLDQHPIDGYLSHTELAPLR [235-256], trypsin [1]: 5.9
ATOMS ratio (Mature cath-D + SPARC - pepst./Mature cath-D + SPARC + pepst.), peptide GQLDQHPIDGYLSHTELAPLR [236-256], trypsin [1]: 2.3
ATOMS ratio (Mature cath-D + SPARC - pepst./Mature cath-D + SPARC + pepst.), peptide LDSELTEFPLR [156-166], trypsin [1]: 0.4
ATOMS ratio (Mature cath-D + SPARC - pepst./Mature cath-D + SPARC + pepst.), peptide LSHTELAPLR [247-256], trypsin [1]: 2.4
ATOMS ratio (Mature cath-D + SPARC - pepst./Mature cath-D + SPARC + pepst.), peptide PLIPMEHCTTR [258-268], trypsin [1]: 4.3
ATOMS ratio (Mature cath-D + SPARC - pepst./Mature cath-D + SPARC + pepst.), peptide PVHWQFGQLDQHPIDGYLSHTELAPLR [230-256], trypsin [1]: 5.6
ATOMS ratio (Mature cath-D + SPARC - pepst./Mature cath-D + SPARC + pepst.), peptide QLDQHPIDGYLSHTELAPLR [237-256], trypsin [1]: 2.2
ATOMS ratio (Mature cath-D + SPARC - pepst./Mature cath-D + SPARC + pepst.), peptide SHTELAPLR [248-256], trypsin [1]: 1.6
ATOMS ratio (Mature cath-D + SPARC - pepst./Mature cath-D + SPARC + pepst.), peptide VTLYERDEDNNLLTEK [176-191], trypsin [1]: 14.3
ATOMS ratio (Mature cath-D + SPARC - pepst./Mature cath-D + SPARC + pepst.), peptide WQFGQLDQHPIDGYLSHTELAPLR [233-256], trypsin [1]: 3.1
ATOMS ratio (Mature cath-D + SPARC - pepst./Mature cath-D + SPARC + pepst.), peptide YERDEDNNLLTEK [179-191], trypsin [1]: 11.8
ATOMS ratio (Mature cath-D + SPARC - pepst./Mature cath-D + SPARC + pepst.), peptide YERDEDNNLLTEKQK [179-193], trypsin [1]: 16.8
ATOMS ratio (Mature cath-D + SPARC - pepst./Mature cath-D + SPARC + pepst.), peptide YLSHTELAPLR [246-256], trypsin [1]: 5.7
SPARC cleavage at pH 5.9, ATOMS and silver staining [1]: We detected SPARC cleavage fragments of similar size also after incubation with the fully mature 34+14-kDa cath-D form at pH 5.9

auto-activated 51-kDa pseudo-cath-D (recombinant human cathepsin D)
ATOMS ratio (Pseudo-cathD + SPARC - pepst./Pseudo-cath-D + SPARC + pepst), peptide DQHPIDGYLSHTELAPLR [239-256], trypsin [1]: 8.4
ATOMS ratio (Pseudo-cathD + SPARC - pepst./Pseudo-cath-D + SPARC + pepst), peptide EAGDHPVELLAR [207-218], trypsin [1]: 11.3
ATOMS ratio (Pseudo-cathD + SPARC - pepst./Pseudo-cath-D + SPARC + pepst), peptide FGQLDQHPIDGYLSHTELAPLR [235-256], trypsin [1]: 10.6
ATOMS ratio (Pseudo-cathD + SPARC - pepst./Pseudo-cath-D + SPARC + pepst), peptide GQLDQHPIDGYLSHTELAPLR [236-256], trypsin [1]: 2
ATOMS ratio (Pseudo-cathD + SPARC - pepst./Pseudo-cath-D + SPARC + pepst), peptide PLIPMEHCTTR [258-268], trypsin [1]: 22.5
ATOMS ratio (Pseudo-cathD + SPARC - pepst./Pseudo-cath-D + SPARC + pepst), peptide QLDQHPIDGYLSHTELAPLR [237-256], trypsin [1]: 3.5
ATOMS ratio (Pseudo-cathD + SPARC - pepst./Pseudo-cath-D + SPARC + pepst), peptide SHTELAPLR [248-256], trypsin [1]: 2.7
ATOMS ratio (Pseudo-cathD + SPARC - pepst./Pseudo-cath-D + SPARC + pepst), peptide VTLYERDEDNNLLTEK [176-191], trypsin [1]: 12.1
ATOMS ratio (Pseudo-cathD + SPARC - pepst./Pseudo-cath-D + SPARC + pepst), peptide YERDEDNNLLTEK [179-191], trypsin [1]: 13.7
ATOMS ratio (Pseudo-cathD + SPARC - pepst./Pseudo-cath-D + SPARC + pepst), peptide YERDEDNNLLTEKQK [179-193], trypsin [1]: 21.1
ATOMS ratio (Pseudo-cathD + SPARC - pepst./Pseudo-cath-D + SPARC + pepst), peptide YLSHTELAPLR [246-256], trypsin [1]: 18.8
SPARC cleavage at pH 5.9, ATOMS and silver staining [1]: SPARC was hydrolysed by the 51-kDa cath-D form exclusively in its extracellular Ca2+ binding domain, releasing five main SPARC fragments (34-, 27, 16, 9-, and 6-kDa) at pH 5.9
SPARC cleavage, pH dependence (6.8 to 5.5), SDS-PAGE and immunoblot [1]: experiments in which pH was gradually reduced from 6.8 to 5.5 showed progressive limited proteolysis of SPARC at lower pH
SPARC cleavage, time course at pH 5.9, SDS-PAGE and immunoblot [1]: At pH 5.9, SPARC was hydrolysed by cath-D in a time-dependent manner

human cath-D secreted by TNBC cells (MDA-MB-231)
SPARC cleavage in MDA-MB-231/HMF conditioned medium at pH 5.5, immunoblot [2]: SPARC was hydrolysed in a time-dependent manner in the conditioned medium at pH 5.5
SPARC cleavage in MDA-MB-231/HMF conditioned medium at pH 6.8 to 5.5, immunoblot [2]: in the MDA-MB-231/HMF conditioned medium, SPARC was significantly degraded up to pH 6.2
TAILS ratio (CM - pepst./CM + pepst.), peptide DQHPIDGYLSHTELAPLR [239-256], trypsin [2]: 7.6
TAILS ratio (CM - pepst./CM + pepst.), peptide EAGDHPVELLAR [207-218], trypsin [2]: 3.4
TAILS ratio (CM - pepst./CM + pepst.), peptide GQLDQHPIDGYLSHTELAPLR [236-256], trypsin [2]: 12.4
TAILS ratio (CM - pepst./CM + pepst.), peptide PLIPMEHCTTR [258-268], trypsin [2]: 5.9
TAILS ratio (CM - pepst./CM + pepst.), peptide QLDQHPIDGYLSHTELAPLR [237-256], trypsin [2]: 15.1
TAILS ratio (CM - pepst./CM + pepst.), peptide YLSHTELAPLR [246-256], trypsin [2]: 4.4
